One substance from publication doi:10.64898/2025.12.30.697132 can be followed below.

Test [1] addresses XCL1 R23A,R43A (human) (UniProt P47992). Description: 19F NMR.
The target is the same in test [2]. Kind of test: 19F NMR. The source holds these as a separate data set.

Read-outs that look alike come from different tables or passages of the source.

For the substance “XCL1 R23A,R43A (from UniProt P47992 22-93) (domain or fragment)”, the percent of the protein in the dimer fold in the test with XCL1 R23A,R43A (human) [1] came out at 26%; with XCL1 R23A,R43A (human) [2], 20%.
